{
  "source": "paper PMC11045787",
  "about": "“Disordered clock protein interactions and charge blocks turn an hourglass into a persistent circadian oscillator” (Nature Communications, 2024)",
  "molecular_target": "T1, FRQ-interacting RNA Helicase (FRH), a.a. 100-1106, with 6x His-tag (N. crassa, UniProt Q1K502 100-1106)",
  "T1 construct": "The preparation was only about 30% FRH; the other proteins were left in on purpose; also called FRHΔ100; E. coli expressed FRH; source: E. coli BL21 (DE3), Ni-NTA eluate, de-salted and buffer-exchanged to PBS (~30% FRH by Coomassie gel); not shown: His6, N-terminal, kept",
  "T1 sequence (looked up)": "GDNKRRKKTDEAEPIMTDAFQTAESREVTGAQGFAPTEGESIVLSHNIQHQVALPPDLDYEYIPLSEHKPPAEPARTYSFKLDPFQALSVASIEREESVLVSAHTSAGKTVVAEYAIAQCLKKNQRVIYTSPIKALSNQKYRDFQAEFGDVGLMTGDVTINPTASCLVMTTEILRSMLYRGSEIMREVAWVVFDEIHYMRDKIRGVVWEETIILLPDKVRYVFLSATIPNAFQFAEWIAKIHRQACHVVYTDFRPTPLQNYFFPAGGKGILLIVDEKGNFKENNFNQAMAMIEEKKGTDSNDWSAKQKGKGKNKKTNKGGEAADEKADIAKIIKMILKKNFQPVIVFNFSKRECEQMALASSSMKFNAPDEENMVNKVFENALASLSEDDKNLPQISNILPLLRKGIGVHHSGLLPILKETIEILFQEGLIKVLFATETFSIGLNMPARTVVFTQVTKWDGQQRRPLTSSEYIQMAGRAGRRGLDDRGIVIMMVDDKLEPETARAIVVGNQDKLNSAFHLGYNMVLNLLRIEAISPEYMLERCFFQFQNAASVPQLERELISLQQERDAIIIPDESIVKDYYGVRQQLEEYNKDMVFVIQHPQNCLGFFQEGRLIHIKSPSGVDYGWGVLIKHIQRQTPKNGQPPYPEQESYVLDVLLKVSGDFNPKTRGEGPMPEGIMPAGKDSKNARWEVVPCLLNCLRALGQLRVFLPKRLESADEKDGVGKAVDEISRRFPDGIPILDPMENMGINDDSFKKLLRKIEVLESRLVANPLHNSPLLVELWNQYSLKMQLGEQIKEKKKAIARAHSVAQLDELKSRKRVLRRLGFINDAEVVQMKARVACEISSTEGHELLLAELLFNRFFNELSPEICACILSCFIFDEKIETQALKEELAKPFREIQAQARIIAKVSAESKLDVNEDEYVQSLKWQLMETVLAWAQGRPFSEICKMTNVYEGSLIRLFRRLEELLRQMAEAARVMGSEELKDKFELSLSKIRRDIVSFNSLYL",
  "test": "peptide or protein array; LOCATE Library II: rationally designed FRQ peptides (parents, scrambles, truncations, substitutions) spotted on slides; ~100 nM FRH in solution, room temperature, PBS pH 7.0; read with anti-His and chemiluminescence; FRH preparation ~30% pure",
  "conditions": "both partners purified",
  "note": "Where no end group is shown, it is not given here.",
  "data": [
    {"binder": "Ac-MTDKEKKKLVVRRLE (Made from C- to N-terminus on cellulose; printed as a peptide-cellulose stock; source: synthetic peptide (Fmoc, on cellulose disks, spotted on nitrocellulose-coated slides))", "note": "[FRQ peptide MTDKEKKKLVVRRLE (near the FCD-1 region)]", "values": [
      {"measurement": "binding result", "value": "binds"}
    ]}
  ]
}
